Measured values: paper PMC7863765

Tests used:
[1] = biological target: phosphorylated SARS-CoV-2 N construct pN.1-238 (SARS-CoV-2) (UniProt P0DTC9); test: SEC-MALS
[2] = biological target: phosphorylated SARS-CoV-2 N construct pN.1-211 (SARS-CoV-2) (UniProt P0DTC9); test: SEC; observed qualitatively; Figure 6(C) and data not shown

## untagged full-length human 14-3-3γ (from UniProt P61981 1-247) (natural protein)
[1]
  stoichiometry N (14-3-3γ chains per pN.1-238 chain (2:1)): 2
[2]
  stoichiometry N (14-3-3γ chains per pN.1-211 chain (2:1)): 2
